Residue numbers refer to the chain shown, from its start.
Legend:
human CXCL1 protein [1] = biological target: T1, human CXCL1 protein (human, UniProt P09341 35-107); assay: antigen-immobilized ELISA, HuCXCL1 on the plate, absorbance (upper left panel)
T1 construct: also called HuCXCL1
T1 sequence: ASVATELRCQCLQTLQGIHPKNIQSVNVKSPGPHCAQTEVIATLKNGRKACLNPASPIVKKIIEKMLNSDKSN

human CXCL1 protein [2] = biological target: T1, human CXCL1 protein; assay: antigen-immobilized ELISA
human CXCL1 protein [3] = biological target: T1, human CXCL1 protein; assay: antigen-immobilized ELISA, HuCXCL1 on the plate, absorbance (lower left panel)

B1: mh1A-7H10_VH1/VL (antibody, V domains shown)
VH: QVQLKESGPVLVAPSQSLSITCSVSGFSSTTYGVHWVRQPPGQGLEWLGVIWAGGSTNYNAALMSRLSISKDNSKSQVFLKMNSLQTDDTAMYYCATQYHYPFAYWGQGTLVTVSA
VL: NIVMTQSPKSMSMSVGERVTLSCKASENVGIYVSWYQQKPEQSPKLMIYGASNRNTGVPDRFTGSGSATDFTLTISSVQAEDLADYYCGQSYSYPLTFGAGTKLELK
EC50 (read off the curve) (human CXCL1 protein [1]): ~0.02 µg/mL

B2: mh5A-5E11 VH1/VL (antibody, V domains shown)
VH: QVQLQQSGAELVRPGSSVKISCKASGYAFSDYWMNWVKQRPGQGLEWIGQIYPGSGDTNYNGKFKGKGTLTADKSSSTAYMQLNSLTSEDSAVYFCARERDYDVAMDYWGQGTSVTVSS
VL: DIQMTQSPSSLSASLGGKVTITCKASQDINKYIAWFQHKPGKGPRLVIHYTSILQPGIPSRFSGVGSGRDYSFSIRNLEPEDIATYYCLQYDNLPWTFGGGTKLEIK
binding result (human CXCL1 protein [2]): binds

B3: mh5A-5E11 VH5/VL (antibody, V domains shown)
VH: B2 VH with S55D, G62A
VL: B2 VL
binding result (human CXCL1 protein [2]): binds

B4: mh5A-5E11 VH6/VL (antibody, V domains shown)
VH: B2 VH with N61S
VL: B2 VL
binding result (human CXCL1 protein [2]): binds

B5: mh5A-5E11 VH4/VL (antibody, V domains shown)
VH: B2 VH with S55D, N61S
VL: B2 VL
binding result (human CXCL1 protein [2]): binds

B6: mh5A-5E11_VH7/VL (antibody, V domains shown)
VH: B2 VH with G62A
VL: B2 VL
EC50 (read off the curve) (human CXCL1 protein [3]): ~0.02 µg/mL

B7: mh5A-5E11 VH2/VL (antibody, V domains shown)
VH: B2 VH with S55E
VL: B2 VL
binding result (human CXCL1 protein [2]): binds

B8: mh5A-5E11 VH11/VL (antibody, V domains shown)
VH: B2 VH with S55D, G56A, G62A
VL: B2 VL
binding result (human CXCL1 protein [2]): binds

B9: mh5A-5E11 VH3/VL (antibody, V domains shown)
VH: B2 VH with S55D, G56A
VL: B2 VL
binding result (human CXCL1 protein [2]): binds

B10: mh5A-5E11 VH9/VL (antibody, V domains shown)
VH: B2 VH with S55E, G62A
VL: B2 VL
binding result (human CXCL1 protein [2]): binds

B11: mh5A-5E11 VH8/VL (antibody, V domains shown)
VH: B2 VH with S55E, N61S
VL: B2 VL
binding result (human CXCL1 protein [2]): binds

B12: mh5A-5E11 VH10/VL (antibody, V domains shown)
VH: B2 VH with S55D, G56A, N61S
VL: B2 VL
binding result (human CXCL1 protein [2]): binds

B13: Hu5A-5E11 VH1/VL2 (antibody, V domains shown)
VH: QVQLVQSGAEVKKPGSSVKVSCKASGYAFSDYWMNWVRQAPGQGLEWIGQIYPGSGDTNYNAKFKGKGTITADKSTSTAYMELSSLRSEDTAVYYCARERDYDVAMDYWGQGTTVTVSS
VL: DIQMTQSPSSLSASVGDRVTITCKASQDINKYIAWFQQKPGKAPKLVIHYTSILQPGVPSRFSGVGSGTDYTFTISSLQPEDIATYYCLQYDNLPWTFGGGTKVEIK
notes: Humanized antibody
EC50 (read off the curve) (human CXCL1 protein [3]): ~0.02 µg/mL

B14: Hu5A-5E11 VH2/VL2 (antibody, V domains shown)
VH: B13 VH with I70L
VL: B13 VL
notes: Humanized antibody
EC50 (read off the curve) (human CXCL1 protein [3]): ~0.02 µg/mL

B15: Hu5A-5E11 VH2/VL1 (antibody, V domains shown)
VH: B13 VH with I70L
VL: B13 VL with V65S
notes: Humanized antibody
EC50 (read off the curve) (human CXCL1 protein [3]): ~0.02 µg/mL

B16: Hu1A-7H10 VH1/VL1 (antibody, V domains shown)
VH: QVTLKESGPVLVKPTETLTLTCTVSGFSSTTYGVHWVRQPPGKALEWLGVIWAGGSTNYNAALMSRLTISKDTSKSQVVLTMTNMDPVDTATYYCATQYHYPFAYWGQGTLVTVSS
VL: DIQMTQSPSSLSASVGDRVTITCKASENVGIYVSWYQQKPGKAPKLMIYGASNRNTGVPSRFSGSGSGTDFTLTISSLQPEDFATYYCGQSYSYPLTFGGGTKVEIK
EC50 (read off the curve) (human CXCL1 protein [1]): ~0.02 µg/mL

B17: Hu1A-7H10 VH2/VL1 (antibody, V domains shown)
VH: B16 VH with T73N
VL: B16 VL
notes: Humanized antibody
EC50 (read off the curve) (human CXCL1 protein [1]): ~0.02 µg/mL

B18: Hu1A-7H10 VH1/VL2 (antibody, V domains shown)
VH: B16 VH
VL: B16 VL with G68A
notes: Humanized antibody
EC50 (read off the curve) (human CXCL1 protein [1]): ~0.02 µg/mL

B19: Hu1A-7H10 VH2/VL2 (antibody, V domains shown)
VH: B16 VH with T73N
VL: B16 VL with G68A
notes: Humanized antibody
EC50 (read off the curve) (human CXCL1 protein [1]): ~0.02 µg/mL

B20: 028-8-12 VH1/VL (antibody, V domains shown)
VH: EVQLLESGGGLVQPGGSLRLSCAASGFTFSELSMSWVRQAPGKGLEWVSAISGSGGSTYYASSVKGRFTISRDNSKNTLYLQMNSLRAEDTAVYYCAREGGRLEPYYYYYAMDVWGQGTPVTVSS
VL: DIQMTQSPSSLSASVGDRVTITCRASQSISDNLHWYQQKPGKAPKLLIYDASNLESGVPSRFSGSGSGTDFTLTINSLQPEDFATYYCQQYYSTPLTFGQGTKLEIK
notes: Amino acid-modified human antibody
binding result (human CXCL1 protein [2]): binds

B21: 028-8-12 VH2/VL1 (antibody, V domains shown)
VH: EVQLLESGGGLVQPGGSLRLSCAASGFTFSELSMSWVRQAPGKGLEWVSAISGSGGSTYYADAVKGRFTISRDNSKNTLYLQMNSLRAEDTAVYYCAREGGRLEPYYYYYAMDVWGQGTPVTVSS
VL: B20 VL with N76S
notes: as for B20
binding result (human CXCL1 protein [2]): binds

B22: 028-8-12 VH2/VL (antibody, V domains shown)
VH: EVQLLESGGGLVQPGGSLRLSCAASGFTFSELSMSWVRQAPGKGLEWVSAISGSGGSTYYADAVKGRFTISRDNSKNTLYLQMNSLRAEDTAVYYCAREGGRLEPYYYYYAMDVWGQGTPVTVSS
VL: B20 VL
notes: as for B20
binding result (human CXCL1 protein [2]): binds

B23: 028-8-12 VH/VL1 (antibody, V domains shown)
VH: B20 VH with S62D
VL: B20 VL with N76S
notes: as for B20
binding result (human CXCL1 protein [2]): binds

B24: mh4A-2F7 VH/VL2 (antibody, V domains shown)
VH: QVTLKESGPGILKPSQTLSLTCSFSGFSLSTSGMGVDWIRQPSGKGLEWLAHIWWDDDKYYNPSLKSQLTISKDTSRNQVFLKITSVDTADTATYYCARSYGYDMDYYAMDYWGQGTSVTVSS
VL: DIQMTQSPSSLSASLGERVSLTCRASQEISGYLSWLQQKPDGTIKRLIYAASTLESGVPKRFSGSRSGSDYSLTISSLESEDFADYYCLQYASYPPWTFGGGTKLEIK
binding result (human CXCL1 protein [2]): binds

B25: mh4A-2F7 VH/VL3 (antibody, V domains shown)
VH: B24 VH
VL: B24 VL with E55D, S56A
binding result (human CXCL1 protein [2]): binds

— patent US20250154240A1 (CHIOME BIOSCIENCE, published 2025)
